Test results: the supplement of paper PMC10724198
± gives the standard deviation of the averaged measurements.

system: Saccharomyces cerevisiae; test: protein stability index of tFT-peptide fusion (C-terminal peptide) (PSI (0-1 scale)); higher = more stable (slower turnover); conditions: genetic background: wild type; temperature: 30 C
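Further: PSI is a weighted mean of sequencing reads over stability bins, variants kept only with over 10 reads, mCherry proximal and sfGFP distal, peptide attached via GGGS linker.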

Sequence | protein stability index
VGLGGGVRLGRL | 0.786 ± 0.09
VGLGRPAAAWRR | 0.71 ± 0.00097
VGLLCVGAGFWG | 0.652 ± 0.014
VGLLGCGMNGGR | 0.701 ± 0.068
VGLLLAGKIVTY | 0.604 ± 0.033
VGLVVVRTMGPC | 0.6463 ± 0.00079
VGNGGVWSVGRG | 0.685 ± 0.038
VGRAPDFLYGVW | 0.691 ± 0.044
VGREVSYGRGGD | 0.655 ± 0.031
VGRGCVLGVWEG | 0.715 ± 0.035
VGRGPSAPVSCV | 0.726 ± 0.061
VGRTNHSRVFRT | 0.627 ± 0.035
VGRWGGVSLGGR | 0.715 ± 0.09
VGSLGVGTFRRD | 0.692 ± 0.011
VGSLRAGYFLRL | 0.637 ± 0.043
VGSSLRGWSSRT | 0.804 ± 0.045
VGVAGGRGEEEL | 0.735 ± 0.019
VGVDCGVLWCLF | 0.637 ± 0.015
VGVFDGAVFSWC | 0.726 ± 0.12
VGVGGGRWCGRG | 0.69 ± 0.059
VGVGGVGGFFGC | 0.79 ± 0.037
VGVTLSSFSRLP | 0.693 ± 0.085
VGVVRAGWGGAV | 0.65 ± 0.059
VGVVVGLVRLLG | 0.537 ± 0.039
VGVWTGWDVDCH | 0.742 ± 0.076
VGWGGGESLGWV | 0.694 ± 0.13

Sequence | protein stability index
VGYWGMGFWFSG | 0.65 ± 0.03
VHCNLKLDASNF | 0.719 ± 0.058
VHESARAAGSDW | 0.647 ± 0.062
VHGAQICCIPWY | 0.699 ± 0.063
VHGYVRLIWPTI | 0.696 ± 0.053
VHHFCSPPLPPP | 0.732 ± 0.0095
VHHTPFFSAPHV | 0.647 ± 0.09
VHSPLVHILSCS | 0.582 ± 0.012
VHTCVSYTNCMD | 0.703 ± 0.026
VICRGGHVLLES | 0.72 ± 0.098
VIDHALWCYVGG | 0.605 ± 0.0087
VIFGCVLSQLDT | 0.705 ± 0.023
VIILRWCRVDGF | 0.565 ± 0.031
VIVLVQDVALQL | 0.7 ± 0.065
VKGCKCGRIASY | 0.669 ± 0.063
VKPIFTEYGRYK | 0.626 ± 0.002
VKQGCISSNCKL | 0.762 ± 0.16
VKRPGVGRSSTA | 0.731 ± 0.051
VKTNPEGDGKQE | 0.671 ± 0.021
VKVWRTILRLLD | 0.535 ± 0.0097
VLACVAQAACCR | 0.556 ± 0.054
VLAGTGGCASVW | 0.739 ± 0.022
VLAGVVGQARWW | 0.731 ± 0.015
VLALLPLFFYFH | 0.5041 ± 0.0041
VLFCFAHSASFL | 0.536 ± 0.066
VLGCWEAPFVRC | 0.62 ± 0.1

Sequence | protein stability index
VLGGVWAWWVGF | 0.663 ± 0.022
VLGLLFLLCVFM | 0.6436 ± 0.0038
VLGVTVRFRGIS | 0.642 ± 0.057
VLLRSTRRPLPC | 0.657 ± 0.036
VLMVIPRAQVLL | 0.697 ± 0.085
VLPPTPLTPVLP | 0.676 ± 0.055
VLRARQGVREPP | 0.526 ± 0.01
VLRGSFPWLSPV | 0.7084 ± 0.0048
VLSGFICTILIP | 0.596 ± 0.038
VLSLLVLLLSLP | 0.614 ± 0.017
VLSSARKEVIIG | 0.643 ± 0.03
VLTGFTGSAIIG | 0.682 ± 0.03
VLTVVRVGVGKQ | 0.676 ± 0.051
VLVLVARPLWRI | 0.646 ± 0.0094
VLVRRVFRRRSR | 0.786 ± 0.11
VLVRYSAGTGGT | 0.605 ± 0.013
VMKILQVGDVYN | 0.752 ± 0.021
VMLSYCHNLTKI | 0.646 ± 0.074
VMLWAGLFGSSV | 0.634 ± 0.018
VMTRVIYRGVGR | 0.6643 ± 0.00051
VNKRRCIGERDG | 0.6949 ± 0.0029
VNMMYEIWPLGN | 0.624 ± 0.038
VNRYSKETDAVF | 0.6719 ± 0.0043
VNYRVWRKRGGR | 0.644 ± 0.057
VPEMFSSGIKGG | 0.653 ± 0.072
VPLPLHLPPPLP | 0.863 ± 0.12

Sequence | protein stability index
VPMVFSIYFGVS | 0.563 ± 0.012
VPPPLASPPVTP | 0.698 ± 0.055
VPPPVCAVPPPL | 0.684 ± 0.036
VPPSKQRSRIKD | 0.675 ± 0.028
VPRGPRFHIILS | 0.594 ± 0.035
VPRLPPSPPPLP | 0.779 ± 0.076
VPSCWVSFPPSP | 0.732 ± 0.04
VPSPPCPPHLPI | 0.655 ± 0.012
VPVALWEAPAVH | 0.601 ± 0.013
VPVIGRSCPFLP | 0.6581 ± 0.0013
VPYFRSMSSLSI | 0.6347 ± 0.0039
VQKITRLVDKVV | 0.813 ± 0.065
VQNPVTTPQEQF | 0.684 ± 0.043
VQTYVRARVDRL | 0.711 ± 0.024
VRAGFRAWGVSE | 0.572 ± 0.2
VRAHARPTKGKP | 0.682 ± 0.059
VRATNLSSVGIF | 0.619 ± 0.011
VREFRRAVFVGS | 0.544 ± 0.02
VREGTKDGGSRV | 0.544 ± 0.042
VRESLGANACSR | 0.69 ± 0.058
VRFARSGPAHVC | 0.6607 ± 0.003
VRFKDFDDLGSL | 0.704 ± 0.067
VRGRGRSWRRVK | 0.758 ± 0.18
VRGRLGGGVGRA | 0.686 ± 0.079
VRGVGGLWGGAV | 0.785 ± 0.17
VRHGERGGGLGD | 0.782 ± 0.06

Sequence | protein stability index
VRHSCRTTTPPS | 0.708 ± 0.009
VRNKGVAKDHCP | 0.661 ± 0.064
VRNPLRSFSGDA | 0.64 ± 0.049
VRNVVYWEFVVE | 0.585 ± 0.063
VRPPPPPRSSPL | 0.742 ± 0.055
VRPQLGNHRILV | 0.609 ± 0.0067
VRQGERGGGLGD | 0.747 ± 0.038
VRRARATLYSWL | 0.693 ± 0.052
VRRETGPPRAPT | 0.6717 ± 0.0019
VRRVVDESKTRD | 0.659 ± 0.038
VRSGKGKNRWNK | 0.719 ± 0.024
VRSLFSFRLRGS | 0.633 ± 0.056
VRVCGPSCFRPG | 0.628 ± 0.05
VRWLLTSHARLT | 0.484 ± 0.12
VRWSRMGCNWGG | 0.585 ± 0.093
VSAPTHVSRVTQ | 0.649 ± 0.0088
VSARWSTSLCLS | 0.533 ± 0.015
VSDGGCIFHRRT | 0.704 ± 0.055
VSEGFVLGGSCG | 0.663 ± 0.0074
VSGPTPAPLSSL | 0.695 ± 0.028
VSGSSAIFLLWC | 0.706 ± 0.1
VSHKETNKIKPN | 0.701 ± 0.097
VSIAYARHGDSV | 0.693 ± 0.028
VSKYNGIKRRNG | 0.6 ± 0.0085
VSLCYGGGFWGG | 0.722 ± 0.014
VSLVLESFFGRV | 0.719 ± 0.014

Sequence | protein stability index
VSPFSILLPVPL | 0.608 ± 0.017
VSPLFQDFSIIN | 0.717 ± 0.06
VSPTGRRGYGRS | 0.66754 ± 0.00015
VSRGESEVKAGG | 0.673 ± 0.1
VSRGRVKETGEE | 0.713 ± 0.038
VSRKEQYPEAQE | 0.625 ± 0.033
VSSFALDVGFHF | 0.638 ± 0.068
VSSFGHTFCGWI | 0.618 ± 0.018
VSSPLLFCSIFL | 0.675 ± 0.026
VSSTLVARTVWC | 0.69 ± 0.035
VTGGGVGHWGWW | 0.761 ± 0.052
VTGSGVGGSPEC | 0.683 ± 0.042
VTLFFLFSLSPP | 0.56 ± 0.013
VTLWGFFRVLSL | 0.686 ± 0.043
VVARFDTILLWS | 0.608 ± 0.06
VVARGGGGGSGA | 0.583 ± 0.016
VVAVRLPNVRHY | 0.655 ± 0.018
VVAVTTIDSTHL | 0.682 ± 0.033
VVFASNGSYVLG | 0.672 ± 0.041
VVFTSISFGLFV | 0.572 ± 0.044
VVGAHLWSGFSA | 0.711 ± 0.013
VVGGAGRRYVEG | 0.702 ± 0.036
VVGKKQTGEKEK | 0.725 ± 0.048
VVGRWRVCNVGL | 0.626 ± 0.05
VVGVLRVRSGEN | 0.606 ± 0.03
VVGYAIRVRSGL | 0.593 ± 0.018

Sequence | protein stability index
VVLWSTGRVLYG | 0.699 ± 0.025
VVPDVGVVTSPA | 0.649 ± 0.072
VVRCVLSQKCLV | 0.578 ± 0.015
VVSRTCVRWGLV | 0.655 ± 0.039
VVSVQHEVIIFL | 0.611 ± 0.05
VVSWLGAGYSVR | 0.7 ± 0.071
VVWLWGAGWGCD | 0.747 ± 0.022
VVYFGVVVEGQV | 0.514 ± 0.032
VWAGGSLLGCVG | 0.686 ± 0.044
VWAVALSRQGPC | 0.689 ± 0.016
VWFFSHFCGVRF | 0.686 ± 0.012
VWGAGGGVWGLG | 0.793 ± 0.0085
VWGRRVMESHGE | 0.628 ± 0.042
VWLGTCLPRRAV | 0.725 ± 0.13
VWRCWGGKGQDS | 0.729 ± 0.037
VWRRCVPGPASP | 0.67 ± 0.0097
VWSSCAGDVLFD | 0.734 ± 0.039
VWVFGLGLGRVV | 0.691 ± 0.032
VWVGSLWEHPTV | 0.781 ± 0.17
VWVWVGGGSRGC | 0.7121 ± 0.0041
VYAETMTKELRG | 0.69 ± 0.053
VYDCDVRHFGQC | 0.761 ± 0.053
VYHMFHLGPSFD | 0.7051 ± 0.0015
VYLEWQFGIKEL | 0.648 ± 0.052
VYMWFVDSPGGS | 0.682 ± 0.037
VYSLQSFSVRRY | 0.704 ± 0.018

Sequence | protein stability index
VYYRRFTGGGLY | 0.583 ± 0.016
WACYRLGCGGSW | 0.774 ± 0.041
WAFSAFDHCVAS | 0.665 ± 0.058
WCAYRPGSTGHR | 0.731 ± 0.058
WCLDVGSVSWPF | 0.79432 ± 0.0005
WCNLSFEDNYVT | 0.658 ± 0.018
WCWCSLVVDGTA | 0.5707 ± 0.0047
WFGAECVCVRGG | 0.762 ± 0.2
WFHSANLFLSLS | 0.705 ± 0.077
WFPNQCFENEIP | 0.742 ± 0.054
WFRCCGVLGCLG | 0.657 ± 0.019
WFRGRIFLFPLV | 0.628 ± 0.014
WGDGRGRVWEIS | 0.674 ± 0.048
WGEGRGRVWEIS | 0.665 ± 0.036
WGGCGSVGRGGA | 0.739 ± 0.052
WGGGGGGDCVGA | 0.6732 ± 0.0029
WGGGGGLCGMWA | 0.679 ± 0.032
WGGGGPGWGSRG | 0.621 ± 0.027
WGGRNWDGRGCG | 0.612 ± 0.068
WGGWGVGGRVLW | 0.675 ± 0.066
